Assay results from PMC11597407 (2024).
One block for each binder: values may come before it. Ends that are not written are not given here.

Key:
talin1 F2F3 domains = molecular target: T1, talin1 F2F3 domains; assay: FP
T1 chain: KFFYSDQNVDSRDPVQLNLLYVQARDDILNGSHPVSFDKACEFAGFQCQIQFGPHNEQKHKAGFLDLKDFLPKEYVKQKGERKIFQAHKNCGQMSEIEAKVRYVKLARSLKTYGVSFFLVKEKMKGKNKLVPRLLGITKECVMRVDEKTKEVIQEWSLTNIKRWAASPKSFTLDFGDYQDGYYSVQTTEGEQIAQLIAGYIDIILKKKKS

talin2 F2F3 domains = molecular target: T2, talin2 F2F3 domains; assay: FP
T2 chain: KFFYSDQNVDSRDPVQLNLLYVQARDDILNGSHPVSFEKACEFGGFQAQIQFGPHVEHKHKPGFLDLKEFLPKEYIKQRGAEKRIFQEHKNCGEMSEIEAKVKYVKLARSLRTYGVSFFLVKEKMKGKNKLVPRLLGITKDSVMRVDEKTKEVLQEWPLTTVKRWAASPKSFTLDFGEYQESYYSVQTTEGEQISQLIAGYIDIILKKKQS

Kd (talin1 F2F3 domains): 95.1 µM
B1: β1A (peptide)
chain: KLLMIIHDRREFAKFEKEKMNAKWDTGENPIYKSAVTTVVNPKYEGK
modifications: not fully specified (N-terminus)

Kd (talin2 F2F3 domains): 35.3 µM
B2: β1A (peptide)
chain: B1 chain
modifications: not fully specified (N-terminus)
